Here are results for one substance from patent US20210244792A1.

The experiment concerns the target complement C5. The experiment can be described thus: direct binding to C5 (FIG. 4C); method not described.

On to “EV576 protein (native, purified from salivary gland extracts of the soft tick Ornithodoros moubata) (from UniProt Q5YD59 19-168)”, for which the half-maximal inhibitory concentration (IC50) was found to be 20 mg/L.
